Consider 2 molecules from paper PMC5900715 (Genes & Development, 2018).

Ends that are not written are not given here.

In this test the target is MDM2 NTD polypeptide (residues 10–139) (UniProt Q00987 10-139). Nature of the test: fluorescence polarisation. For orientation: Polarisation of emitted light reports the rotation of a fluorescent probe.

As to fluorescein-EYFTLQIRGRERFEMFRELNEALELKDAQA [wild-type p53 OD peptide (residues 326–355)], the binding result was “binds”. As for fluorescein-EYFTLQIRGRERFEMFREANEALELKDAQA (also: dimeric) [dimeric mutant p53 OD peptide (L344A, residues 326–355)], the binding result is “binds”.
